From article PMC9222203, “A Robust Assay to Monitor Ataxin-3 Amyloid Fibril Assembly” (Cells, 2022)

Legend:
[1] = target: the molecule itself
[2] = target: the molecule itself; test: switchSENSE; His-tagged protein (500 nM) captured on NTA3-functionalised DNA nanolevers; the same protein as analyte at 3.75-15 uM; PBS pH 7.5, 1 mM TCEP, 37 C; static measurement mode; global mono-exponential fits; self-association

B1: Ataxin-3 Josephin domain (domain or fragment, human, UniProt P54252-2 1-180, looked up)
chain: MESIFHEKQEGSLCAQHCLNNLLQGEYFSPVELSSIAHQLDEEERMRMAEGGVTSEDYRTFLQQPSGNMDDSGFFSIQVISNALKVWGLELILFNSPEYQRLRIDPINERSFICNYKEHWFTVRKLGKQWFNLNSLLTGPELISDTYLALFLAQLQQEGYSIFVVKGDLPDCEADQLLQM
notes: Josephin domain of human ataxin-3 (UniProt P54252-2); A TEV site lies downstream of the His tag; no cleavage described; captured by its His tag in switchSENSE; also called Atx3 JD; JD; source: E. coli BL21(DE3)-SI, purified (Ni2+ IMAC, Sephacryl S-300 SEC); not shown: His6, N-terminal, kept
[1]
  Kd: 4.6 µM
[2]
  binding result: binds
